Consider one molecule from PMC10499876, “Arabidopsis TCP4 transcription factor inhibits high temperature-induced homeotic conversion of ovules”.

The series has as its target T1, TCP4 DNA binding domain (Arabidopsis thaliana, UniProt Q8LPR5 45-103).
T1 sequence: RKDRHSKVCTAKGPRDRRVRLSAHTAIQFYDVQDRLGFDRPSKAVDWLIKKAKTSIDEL
The series can be described thus: EMSA; EMSA: ~180 ng protein + ~200 ng dsDNA, 4 °C 20 min; DNA annealed in 25 mM Tris, 100 mM NaCl pH 8.0; 7% native PAGE in 0.5x TBE, ethidium bromide; binding buffer not stated. The note with it: protein: recombinant; tags: C-terminal His (pET-21b); chain copies: 2; blunt. (In general: Mobility shift assays separate free from complexed probe on a gel.)

B1: CRC promoter probe (dsDNA)
DNA 1: CAGGAAAGGACCATTCTTAA
DNA 2: TTAAGAATGGTCCTTTCCTG
Turning to B1, the binding result is reported as “binds”.
